{
  "source": "paper doi:10.1101/2021.12.28.474374",
  "about": "(bioRxiv, 2021)",
  "molecular_target": "T1, Ctc1 OB-A (residues 1-183) (Tetrahymena, UniProt A0PGB2 1-183)",
  "T1 sequence (looked up)": "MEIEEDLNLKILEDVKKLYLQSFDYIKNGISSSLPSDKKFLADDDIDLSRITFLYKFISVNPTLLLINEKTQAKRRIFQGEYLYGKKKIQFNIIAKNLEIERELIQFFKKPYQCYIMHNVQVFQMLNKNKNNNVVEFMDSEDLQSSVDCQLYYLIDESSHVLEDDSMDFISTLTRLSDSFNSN",
  "test": "NMR titration",
  "data": [
    {"binder": "CQQDDFGDGCLLQIVNYTHQSLK (peptide, UniProt D2CVN8 228-250, looked up)", "note": "[p50 peptide (residues 228-250)]", "values": [
      {"measurement": "stoichiometry N", "value": 1}
    ]}
  ]
}
